# Tested on: MS2 coat protein
# Experiment: apparent KD of MS2 coat protein; designed switch direction (-1 OFF switch, 1 ON switch): -1; higher = weaker reporter binding
# How it was run: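 Designed RNA switches were transcribed on Illumina chips by stalled E. coli RNA polymerase and titrated with SNAP-549-labelled MS2 coat protein from 0.7 or 1.5 nM, doubling to 3 µM. Step length ran from 0.8–1.5 h at the lowest concentration to 10–20 min at the highest. The apparent KD is the median over clusters for each design, from curve-fitted normalised cluster fluorescence.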
# [1] = Eterna round: R95, input ligand: FMN 200 uM
# [2] = Eterna round: R95, input ligand: microRNA oligo, concentration not stated
# [3] = Eterna round: R95, input ligand: none
# [4] = input ligand: microRNA oligo, concentration not stated
Sequence,apparent KD of MS2 coat protein (input ligand: FMN 200 uM),apparent KD of MS2 coat protein (input ligand: none),apparent KD of MS2 coat protein [1],apparent KD of MS2 coat protein [2],apparent KD of MS2 coat protein [3],apparent KD of MS2 coat protein [4]
"GUGACUCAGCAGGAUAUACGCGCGAGUGCGUAAGUAGAAGGGUUGACAUGAGGAUCACCCAUGUAGAACCACAC [Eternabot (L2) Solution 18] (Eterna round: R97, puzzle: Exclusion 6)",19.9 nM,18.4 nM,,,,
"UUCGCGGAAGGAUAUACAUGAGGAUCACCCAUGUGCUUAUGCGCAACAGCUUCGCAGUGUAGAAGGUUCAGAGU [Eternabot (L1) Solution 3] (Eterna round: R97, puzzle: Exclusion 3)",18.9 nM,23.4 nM,,,,
"AGCAUGCGGAAGGAUAUUUGGAGUAGCGACUCGGGAGAAGGUCUGACAUGAGGAUCACCCAUGUGGAGAGACUG [Eternabot (L1) Solution 59] (Eterna round: R97, puzzle: Exclusion 6)",39.2 nM,20.9 nM,,,,
"GAAGAAGAGAGAAAAGAAAACAUGAGGAUCACCCAUGUGAGAAGAUGAGGGUGUAGCAGGCUUUAUGCUCGUCUUAU (puzzle: Sensor v3, turn-off variant 1)",,,27.5 nM,78.5 nM,27.9 nM,
"GCGGACUAGUUCGUGAGAACUGAGACAUGAGGAUCACCCAUGUAGGAUAUCGAUUCGAAACGAAUCGAGAAGGGCAUAGUCCGC [JL denovo 9] (Eterna round: R96, puzzle: Exclusion NG 3)",25.1 nM,26.8 nM,,,,17.7 nM
"AGCCCUGCAGGAUAUGUCGAGGAUAACAUGAGGAUCACCCAUGUGACCGAUUGUUAGACUGCAGAAGGGCAUGGGA [salish99_ex5_r4_304] (Eterna round: R97, puzzle: Exclusion 5)",278 nM,70.6 nM,,,,
"AACAGCACAGGAUAUACAUGAGGAUCACCCAUGUGAGAAUUAAGUGGCGUACCACAAAGUAGAAGGGUGCUGGA [Mat - Exclusion 3 - JL mod - D39] (Eterna round: R96, puzzle: Exclusion 3)",,,,,,36 nM
"CUUGUGUUAGGAUAUGUUAAGCCACCAACCAGUGGAUCAGGACAGAAGGAACAUGAGGAUCACCCAUGUAAAAG [Inedar] (Eterna round: R97, puzzle: Exclusion 4)",25.3 nM,67.4 nM,,,,
"UAUUCGCAAGCGAGAUCCCACAUGAGGAUCACCCAUGUGCUCGUCUUAUAAGGUACUGUGACGAGAGUCACGGUACC [Mat - Sensor, turn-off var - Eli Mod - D82] (Eterna round: R97, puzzle: Sensor, turn-off variant 1)",16.8 nM,14.7 nM,,,,
"AUAAUGUGAGGAUAUCACGGCCCGAUGAGUACGGUAAACGAUGAGAAGGCACAUGAGGAUCACCCAUGUUCCUG [EX4 A.15] (Eterna round: R97, puzzle: Exclusion 4)",47.8 nM,11.4 nM,,,,
ACUAGAUGAGGAUAUGCAUAUUUUCGUGUUCUUCUAGGUUAACAUGAGGAUCACCCAUGUAGAAGGCGUCUAUG [Exclusion 2 - 24] (puzzle: Exclusion 2),,,,19.3 nM,,
CCGCAAAUGCAGGAUAUCGUAUCGGAUACGAUACGAGAAGGGUAUACAUGAGGAUCACCCAUGUGUCCUAGCGG [Fiskers Ex 6 - 45] (puzzle: Exclusion 6),,,23.9 nM,20.3 nM,21.5 nM,
"UUUUUAUAUGAAGGAUAUACUUAACAUGAGGAUCACCCAUGUGGUGUUGUGAGUGAGUGAGUUUAGUAGAAGGUCAAUUAUUAU [JMF's solution 15] (Eterna round: R96, puzzle: Exclusion NG 2)",719 nM,271 nM,,,,390 nM
CCUCAACAGUAGGAUAUCAUAAAACUAUUGUGAUGAGAAGGACUGACAUGAGGAUCACCCAUGUUAACGUGAUA [Exclusion 6 - 5:a] (puzzle: Exclusion 6),,,,17.4 nM,,
"UUUAGUCGUGACAUGGGUGACAUGAGGAUCACCCAUGUUACAAGCUUGUUGCUCGUCUUAUAAUUAACCCAUGUCAC [LRO Sensor-off var1-16 mod of Stov1-13-A1 by Brourd] (Eterna round: R97, puzzle: Sensor, turn-off variant 1)",13.5 nM,17.2 nM,,,,
"AAUGUUUGAUACCUUUAAUACAUGAGGAUCACCCAUGUUAUCGAGGAUAUGUAGAUGAAAUGAGAACAGAAGGCGAAGUAAGAG [JR_ExcNG3_Sub098] (Eterna round: R96, puzzle: Exclusion NG 3)",19.5 nM,24.4 nM,,,,9.73 nM
"AUAAUGUGAGGAUAUCAGUCGACUAGCGAUAGCUAGUCGACUGAGAAGGUACAUGAGGAUCACCCAUGUAGAUC [E4/20-A4] (Eterna round: R97, puzzle: Exclusion 4)",70.6 nM,31 nM,,,,
